B1: TRAF-interacting protein with FHA domain-containing protein A (Homo sapiens), Q96CG3 (parent)
chain: MTSFEDADTEETVTCLQMTVYHPGQLQCGIFQSISFNREKLPSSEVVKFGRNSNICHYTFQDKQVSRVQFSLQLFKKFNSSVLSFEIKNMSKKTNLIVDSRELGYLNKMDLPYRCMVRFGEYQFLMEKEDGESLEFFETQFILSPRSLLQENNWPPHRPIPEYGTYSLCSSQSSSPTEMDENES
partner: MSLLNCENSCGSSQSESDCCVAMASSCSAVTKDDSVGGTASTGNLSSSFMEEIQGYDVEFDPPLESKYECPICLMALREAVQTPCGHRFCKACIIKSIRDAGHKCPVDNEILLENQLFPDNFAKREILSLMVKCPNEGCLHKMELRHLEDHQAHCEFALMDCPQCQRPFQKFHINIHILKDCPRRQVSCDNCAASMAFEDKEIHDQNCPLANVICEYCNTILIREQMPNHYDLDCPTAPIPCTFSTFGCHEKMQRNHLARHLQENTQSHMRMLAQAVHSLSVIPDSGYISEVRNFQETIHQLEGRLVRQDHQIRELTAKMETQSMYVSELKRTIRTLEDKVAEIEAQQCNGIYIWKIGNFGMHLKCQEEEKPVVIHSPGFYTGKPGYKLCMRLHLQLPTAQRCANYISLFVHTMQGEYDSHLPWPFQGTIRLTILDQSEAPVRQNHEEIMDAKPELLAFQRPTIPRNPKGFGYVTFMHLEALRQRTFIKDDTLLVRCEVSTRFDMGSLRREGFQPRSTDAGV

Variants of: B1
Conditions: with traf6_human TRAF6, Q9Y4K3

Variant | effect of a mutation on the interaction
MTSFEDADTEETVTCLQMTVYHPGQLQCGIFQSISFNREKLPSSEVVKFERNSNICHYTFQDKQVARVQFSLQLFKKFNSSVLSFEIKNMSKKTNLIVDSRELGYLNKMDLPYRCMVRFGEYQFLMEKEDGESLEFFETQFILSPRSLLQENNWPPHRPIPEYGTYSLCSSQSSSPTEMDENES [G50E;S66A] | disrupting interaction strength
MTSFEDADTEETVTCLQMTVYHPGQLQCGIFQSISFNREKLPSSEVVKFGRNSNICHYTFQDKQVSRVQFSLQLFKKFNSSVLSFEIKNMSKKTNLIVDSRELGYLNKMDLPYRCMVRFGEYQFLMEKEDGESLEFFETQFILSPRSLLQENNWPPHRPIPEYGTYSLCSSQSSSPTAMDENES [E178A] | disrupting interaction strength
MTSFEDADAEETVTCLQMTVYHPGQLQCGIFQSISFNREKLPSSEVVKFGRNSNICHYTFQDKQVSRVQFSLQLFKKFNSSVLSFEIKNMSKKTNLIVDSRELGYLNKMDLPYRCMVRFGEYQFLMEKEDGESLEFFETQFILSPRSLLQENNWPPHRPIPEYGTYSLCSSQSSSPTEMDENES [T9A] | disrupting interaction strength

From IntAct's records for PubMed 26068852
